From patent US10766960 (dated 2020)
Residue numbers refer to the chain shown, from its start. Where “and” joins values, the source holds several entries; their conditions need not be identical. Identical values can stand only once. Blank lines part the entries; values can stand above or below the binder they belong to.

Tests used:
Assay in all cases: SPR
[1] = molecular target: FcgRIIIa V (human, UniProt P08637)
[2] = molecular target: FcgRIIIa F (human, UniProt P08637)
[3] = molecular target: T1, FcgRIIa R (human, UniProt P12318)
T1 chain: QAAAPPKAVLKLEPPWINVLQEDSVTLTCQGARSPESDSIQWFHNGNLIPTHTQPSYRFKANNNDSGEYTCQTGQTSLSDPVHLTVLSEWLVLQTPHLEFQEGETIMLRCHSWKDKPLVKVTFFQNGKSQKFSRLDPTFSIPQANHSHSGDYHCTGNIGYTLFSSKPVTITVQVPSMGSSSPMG

[4] = molecular target: T2, FcgRIIa H (human, UniProt P12318)
T2 chain: T1 chain with R134H

[5] = molecular target: T3, FcgRIIb (human, UniProt P31994)
T3 chain: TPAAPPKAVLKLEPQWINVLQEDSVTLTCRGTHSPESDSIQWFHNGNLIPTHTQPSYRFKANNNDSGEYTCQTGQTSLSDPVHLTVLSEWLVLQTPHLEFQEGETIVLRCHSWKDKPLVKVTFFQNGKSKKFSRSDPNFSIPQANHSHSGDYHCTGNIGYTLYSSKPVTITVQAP

[6] = molecular target: T4, FcgRIa (human, UniProt P12314)
T4 chain: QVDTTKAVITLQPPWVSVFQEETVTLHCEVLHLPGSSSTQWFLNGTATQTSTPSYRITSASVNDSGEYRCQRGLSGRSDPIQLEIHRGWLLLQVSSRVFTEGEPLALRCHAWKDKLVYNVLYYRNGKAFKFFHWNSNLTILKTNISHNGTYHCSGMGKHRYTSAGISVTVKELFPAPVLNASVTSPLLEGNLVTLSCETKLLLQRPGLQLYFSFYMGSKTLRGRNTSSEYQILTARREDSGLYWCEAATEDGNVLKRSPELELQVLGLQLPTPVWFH

FcgRIIIa F, sequence (P08637 17-208): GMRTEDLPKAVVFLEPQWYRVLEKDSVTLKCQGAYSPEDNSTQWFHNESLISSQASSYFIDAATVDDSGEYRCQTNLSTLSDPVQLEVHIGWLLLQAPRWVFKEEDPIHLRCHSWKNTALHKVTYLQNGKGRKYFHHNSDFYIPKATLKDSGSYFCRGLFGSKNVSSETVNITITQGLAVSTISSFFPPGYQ
FcgRIIIa V, sequence (P08637 17-208 F176V): as the sequence (P08637 17-208) above, with F160V counted along it

B1: H240-FA024/H240-FB001/L73-k0 (antibody)
chain 1: QDQLVQSGAEVKKPGASVKVSCKASGFNIKDTYIQWVRQAPGQGLEWMGRIDPLRKQTKYREKFEGRVTITADTSTNTAYMELSSLRSEDTAVYYCVRSGREFDYWGQGTLVTVSSASTKGPSVFPLAPSSKSTSGGTAALGCLVKDYFPEPVTVSWNSGALTSGVHTFPAVLQSSGLYSLSSVVTVPSSSLGTKTYTCNVNHKPSNTKVDKKVEPKSCDKTHTCPPCPAPEYYWGPSVFLFPPKPKDTLMISRTPEVTCVVVDVSDEEPKVKFNWYVDGVEVHNAKTKPREEQYNATYRVVSVLTVLHQDWLNGKEYKCKVSNKALPAPIEKTISKAKGQPREPQVYTLPPSRKEKTKNQVSLTCLVKGFYPSDIAVEWESNGQPENNYKTTPPVLDSDGSFFLYSKLTVDKSRWQQGNVFSCSVMHEALHNRYTQKSLSLSP
chain 2: QDQLVQSGAEVKKPGASVKVSCKASGFNIKDTYIQWVRQAPGQGLEWMGRIDPLRKQTKYREKFEGRVTITADTSTNTAYMELSSLRSEDTAVYYCVRSGREFDYWGQGTLVTVSSASTKGPSVFPLAPSSKSTSGGTAALGCLVKDYFPEPVTVSWNSGALTSGVHTFPAVLQSSGLYSLSSVVTVPSSSLGTQTYICNVNHKPSNTKVDKKVEPKSCDKTHTCPPCPAPELLGGPSVFLFPPKPKDTLMISRTPEVTCVVVDVSHEEPEVQFNWYVDGVEVHNAKTKPREEQYNSTYRVVSVLTVLHQDWLNGKEYKCKVSNDALPMPIEETISKAKGQPREPQVYTLPPSREEMTKNQVSLTCLVKGFYPSDIAVEWESNGQPENNYKTTPPVLDSDGSFFLYSKLTVDKSRWQQGNVFSCSVMHEALHNHYTQESLSLSP
chain 3: DIQMTQSPSSLSASVGDRVTITCRASQDIHKYIAWYQQKPGQAPRLLIQYTSTLQPGVPSRFSGSGSGTDYTFTISSLQPEDIATYYCLQYEQLRTFGGGTKVEIKRTVAAPSVFIFPPSDEQLKSGTASVVCLLNNFYPREAKVQWKVDNALQSGNSQESVTEQDSKDSTYSLSSTLTLSKADYEKHKVYACEVTHQGLSSPVTKSFNRGEC
Kd [1]: 1.9 nM
Kd [2]: 6.7 nM
Kd [3]: 370 nM
Kd [4]: 110 nM
Kd [5]: 2000 nM
Kd [6]: 1.8 nM

B2: H240-FA021/H240-FB059/L73-k0 (antibody)
chain 1: B1 chain 1 with K271E, V396K
chain 2: B1 chain 2 with G137E, K146E, K287E
chain 3: B1 chain 3
Kd [1]: 1.7 nM
Kd [2]: 4.4 nM
Kd [3]: 280 nM
Kd [4]: 92 nM
Kd [5]: 1300 nM
Kd [6]: 0.069 nM

B3: H240-FA024/H240-FB064/L73-k0 (antibody)
chain 1: B1 chain 1
chain 2: B1 chain 2 with G136E, G137S, S191N, L192F, I198T, N202D, K213T
chain 3: B1 chain 3
Kd [1]: 1.3 nM
Kd [2]: 4.7 nM
Kd [3]: 330 nM
Kd [4]: 110 nM
Kd [5]: 1900 nM
Kd [6]: 0.095 nM

B4: H240-FA024/H240-FB084/L73-k0 (antibody)
chain 1: B1 chain 1
chain 2: B1 chain 2 with G136E, G137S, K146E, S191N, L192F, I198T, N202D, K213T, K287E, N383E
chain 3: B1 chain 3
Kd [1]: 1.2 nM
Kd [2]: 4.6 nM
Kd [3]: 250 nM
Kd [4]: 79 nM
Kd [5]: 1500 nM
Kd [6]: 0.095 nM

B5: H240-FA030/H240-FB059/L73-k0 (antibody)
chain 1: B1 chain 1 with K357M
chain 2: B1 chain 2 with G137E, K146E, K287E
chain 3: B1 chain 3
Kd [1]: 1.2 nM and 1.4 nM
Kd [2]: 3.9 nM and 4.8 nM
Kd [3]: 260 nM and 250 nM
Kd [4]: 85 nM
Kd [5]: 1500 nM
Kd [6]: 0.082 nM and 0.12 nM

B6: H240-FA030/H240-FB001/L73-k0 (antibody)
chain 1: B1 chain 1 with K357M
chain 2: B1 chain 2
chain 3: B1 chain 3
Kd [1]: 1.7 nM
Kd [2]: 6.4 nM
Kd [3]: 440 nM
Kd [4]: 120 nM
Kd [5]: 3300 nM
Kd [6]: 0.036 nM

B7: H240-FA021/H240-FB082/L73-k0 (antibody)
chain 1: B1 chain 1 with K271E, V396K
chain 2: B1 chain 2 with G137E, K146E, K287E, N383E
chain 3: B1 chain 3
Kd [1]: 1.5 nM
Kd [2]: 4.2 nM
Kd [3]: 230 nM
Kd [4]: 77 nM
Kd [5]: 1600 nM
Kd [6]: 0.06 nM

B9: H240-FA009/H240-FB016/L73-k0 (antibody)
chain 1: B1 chain 1 with T198I, K271E, K357M
chain 2: B1 chain 2 with N202D
chain 3: B1 chain 3
Kd [1]: 1 nM
Kd [2]: 4.4 nM
Kd [3]: 250 nM
Kd [4]: 70 nM
Kd [5]: 1400 nM
Kd [6]: 0.13 nM

B10: H240-FA030/H240-FB084/L73-k0 (antibody)
chain 1: B1 chain 1 with K357M
chain 2: B1 chain 2 with G136E, G137S, K146E, S191N, L192F, I198T, N202D, K213T, K287E, N383E
chain 3: B1 chain 3
Kd [1]: 1.3 nM
Kd [2]: 4.2 nM
Kd [3]: 270 nM
Kd [4]: 88 nM
Kd [5]: 2500 nM
Kd [6]: 0.12 nM

B11: H240-FA024/H240-FB082/L73-k0 (antibody)
chain 1: B1 chain 1
chain 2: B1 chain 2 with G137E, K146E, K287E, N383E
chain 3: B1 chain 3
Kd [1]: 1.3 nM
Kd [2]: 4.6 nM
Kd [3]: 240 nM
Kd [4]: 80 nM
Kd [5]: 1500 nM
Kd [6]: 0.13 nM

B17: H240-FA024/H240-FB059/L73-k0 (antibody)
chain 1: B1 chain 1
chain 2: B1 chain 2 with G137E, K146E, K287E
chain 3: B1 chain 3
Kd [1]: 1.3 nM
Kd [2]: 4.4 nM
Kd [3]: 290 nM
Kd [4]: 93 nM
Kd [5]: 1600 nM
Kd [6]: 0.089 nM

B18: H240-FA021/H240-FB084/L73-k0 (antibody)
chain 1: B1 chain 1 with K271E, V396K
chain 2: B1 chain 2 with G136E, G137S, K146E, S191N, L192F, I198T, N202D, K213T, K287E, N383E
chain 3: B1 chain 3
Kd [1]: 1.3 nM
Kd [2]: 3.3 nM
Kd [3]: 230 nM
Kd [4]: 69 nM
Kd [5]: 1300 nM
Kd [6]: 0.033 nM

B19: H240-FA009/H240-FB001/L73-k0 (antibody)
chain 1: B1 chain 1 with T198I, K271E, K357M
chain 2: B1 chain 2
chain 3: B1 chain 3
Kd [1]: 1.1 nM
Kd [2]: 4.3 nM
Kd [3]: 250 nM
Kd [4]: 69 nM
Kd [5]: 1300 nM
Kd [6]: 0.17 nM

Second part, the binder after the results:

Kd [1]: 1.4 nM
Kd [2]: 5 nM
Kd [3]: 300 nM
Kd [4]: 95 nM
Kd [5]: 1700 nM
Kd [6]: 0.15 nM
B8: H240-FA024/H240-FB065/L73-k0 (antibody)
chain 1: B1 chain 1
chain 2: B1 chain 2 with G136E, G137S, S191N, L192F, I198T, N202D, K213T, K287E
chain 3: B1 chain 3

Kd [1]: 1.3 nM
Kd [2]: 4.3 nM
Kd [3]: 300 nM
Kd [4]: 88 nM
Kd [5]: 1900 nM
Kd [6]: 0.092 nM
B12: H240-FA030/H240-FB082/L73-k0 (antibody)
chain 1: B1 chain 1 with K357M
chain 2: B1 chain 2 with G137E, K146E, K287E, N383E
chain 3: B1 chain 3

Kd [1]: 1.1 nM
Kd [2]: 3.4 nM
Kd [3]: 230 nM
Kd [4]: 65 nM
Kd [5]: 1000 nM
Kd [6]: 0.12 nM
B13: H240-FA020/H240-FB083/L73-k0 (antibody)
chain 1: B1 chain 1 with K271E
chain 2: B1 chain 2 with G136E, G137S, K146E, S191N, L192F, I198T, N202D, K213T, K287E
chain 3: B1 chain 3

Kd [1]: 1.1 nM
Kd [2]: 4.4 nM
Kd [3]: 270 nM
Kd [4]: 74 nM
Kd [5]: 1700 nM
Kd [6]: 0.05 nM
B14: H240-FA009/H240-FB047/L73-k0 (antibody)
chain 1: B1 chain 1 with T198I, K271E, K357M
chain 2: B1 chain 2 with N383E
chain 3: B1 chain 3

Kd [1]: 1.4 nM
Kd [2]: 3.9 nM
Kd [3]: 240 nM
Kd [4]: 69 nM
Kd [5]: 1300 nM
Kd [6]: 0.078 nM
B15: H240-FA021/H240-FB083/L73-k0 (antibody)
chain 1: B1 chain 1 with K271E, V396K
chain 2: B1 chain 2 with G136E, G137S, K146E, S191N, L192F, I198T, N202D, K213T, K287E
chain 3: B1 chain 3

Kd [1]: 1 nM
Kd [2]: 3.4 nM
Kd [3]: 310 nM
Kd [4]: 80 nM
Kd [5]: 1600 nM
Kd [6]: 0.12 nM
B16: H240-FA009/H240-FB033/L73-k0 (antibody)
chain 1: B1 chain 1 with T198I, K271E, K357M
chain 2: B1 chain 2 with G137E
chain 3: B1 chain 3
